Consider one variant from article PMC7666136.

B1: eGFP-53BP1 (wild-type TP53-binding protein 1 tagged with enhanced green fluorescent protein) [not stated] / itself (parent)
chain: MDPTGSQLDSDFSQQDTPCLIIEDSQPESQVLEDDSGSHFSMLSRHLPNLQTHKENPVLDVVSNPEQTAGEERGDGNSGFNEHLKENKVADPVDSSNLDTCGSISQVIEQLPQPNRTSSVLGMSVESAPAVEEEKGEELEQKEKEKEEDTSGNTTHSLGAEDTASSQLGFGVLELSQSQDVEENTVPYEVDKEQLQSVTTNSGYTRLSDVDANTAIKHEEQSNEDIPIAEQSSKDIPVTAQPSKDVHVVKEQNPPPARSEDMPFSPKASVAAMEAKEQLSAQELMESGLQIQKSPEPEVLSTQEDLFDQSNKTVSSDGCSTPSREEGGCSLASTPATTLHLLQLSGQRSLVQDSLSTNSSDLVAPSPDAFRSTPFIVPSSPTEQEGRQDKPMDTSVLSEEGGEPFQKKLQSGEPVELENPPLLPESTVSPQASTPISQSTPVFPPGSLPIPSQPQFSHDIFIPSPSLEEQSNDGKKDGDMHSSSLTVECSKTSEIEPKNSPEDLGLSLTGDSCKLMLSTSEYSQSPKMESLSSHRIDEDGENTQIEDTEPMSPVLNSKFVPAENDSILMNPAQDGEVQLSQNDDKTKGDDTDTRDDISILATGCKGREETVAEDVCIDLTCDSGSQAVPSPATRSEALSSVLDQEEAMEIKEHHPEEGSSGSEVEEIPETPCESQGEELKEENMESVPLHLSLTETQSQGLCLQKEMPKKECSEAMEVETSVISIDSPQKLAILDQELEHKEQEAWEEATSEDSSVVIVDVKEPSPRVDVSCEPLEGVEKCSDSQSWEDIAPEIEPCAENRLDTKEEKSVEYEGDLKSGTAETEPVEQDSSQPSLPLVRADDPLRLDQELQQPQTQEKTSNSLTEDSKMANAKQLSSDAEAQKLGKPSAHASQSFCESSSETPFHFTLPKEGDIIPPLTGATPPLIGHLKLEPKRHSTPIGISNYPESTIATSDVMSESMVETHDPILGSGKGDSGAAPDVDDKLCLRMKLVSPETEASEESLQFNLEKPATGERKNGSTAVAESVASPQKTMSVLSCICEARQENEARSEDPPTTPIRGNLLHFPSSQGEEEKEKLEGDHTIRQSQQPMKPISPVKDPVSPASQKMVIQGPSSPQGEAMVTDVLEDQKEGRSTNKENPSKALIERPSQNNIGIQTMECSLRVPETVSAATQTIKNVCEQGTSTVDQNFGKQDATVQTERGSGEKPVSAPGDDTESLHSQGEEEFDMPQPPHGHVLHRHMRTIREVRTLVTRVITDVYYVDGTEVERKVTEETEEPIVECQECETEVSPSQTGGSSGDLGDISSFSSKASSLHRTSSGTSLSAMHSSGSSGKGAGPLRGKTSGTEPADFALPSSRGGPGKLSPRKGVSQTGTPVCEEDGDAGLGIRQGGKAPVTPRGRGRRGRPPSRTTGTRETAVPGPLGIEDISPNLSPDDKSFSRVVPRVPDSTRRTDVGAGALRRSDSPEIPFQAAAGPSDGLDASSPGNSFVGLRVVAKWSSNGYFYSGKITRDVGAGKYKLLFDDGYECDVLGKDILLCDPIPLDTEVTALSEDEYFSAGVVKGHRKESGELYYSIEKEGQRKWYKRMAVILSLEQGNRLREQYGLGPYEAVTPLTKAADISLDNLVEGKRKRRSNVSSPATPTASSSSSTTPTRKITESPRASMGVLSGKRKLITSEEERSPAKRGRKSATVKPGAVGAGEFVSPCESGDNTGEPSALEEQRGPLPLNKTLFLGYAFLLTMATTSDKLASRSKLPDGPTGSSEEEEEFLEIPPFNKQYTESQLRAGAGYILEDFNEAQCNTAYQCLLIADQHCRTRKYFLCLASGIPCVSHVWVHDSCHANQLQNYRNYLLPAGYSLEEQRILDWQPRENPFQNLKVLLVSDQQQNFLELWSEILMTGGAASVKQHHSSAHNKDIALGVFDVVVTDPSCPASVLKCAEALQLPVVSQEWVIQCLIVGERIGFKQHPKYKHDYVSH

The variants in this assay derive from B1. Description: Homo-FRET (FAIM, fluorescence anisotropy imaging) in live DIvA cells. As to conditions: with itself; live DIvA cell nuclei, N = 5 cells, two biological replicates; value is the box median; read off a plot. (In general: In fluorescence polarisation assays a small probe gives low polarisation when free and higher when bound to something large.)
Consider chain 1 Y1258A Y1259A, for which the screen value was 0.01 delta r.
